Test: soluble on expression in E. coli; label from the status in PepcDB or PDB records

Sequence	soluble on expression in E. coli
MTLKLIENLQKLGFTGNEAKVYSSLVCLKQAKASEIAENAGVPRPKIYGTLRTMEKKGYVRIIEGEPTIFCCIQPEELILRLKSDFLLFLRETASELNSLNPGNSDFVSEGFYRERIKV	not soluble
MSLCDYLERSAKKFPEKVAVQGVRLGHIEAITYAELNTFSDRFSEFLRAQGVTRGEFIPFFMFKEIDSIKSIFSILKADCAYVPLDCKSPEGRLLSIIKSCKAKFIIVNERSESLAERVFSAIPTLKIINISEFVSDTAFVFSASLNISVDLAYVLFTSGSTGTPKGVMISHQAIIDYIGWCTETYNITAIDHVSNHAPLYFDNSTFDIYTSMAAGATLHLVPEEFNVMLPRLIDWIEDNRISIFFCVPSILTLMLQTGRLRTERFVELKHLICAGEVLPTTTAKKILGLFPHLQLTNMYGPTEITVDCTYHVIREADVTSSTSIPIGKPRRNMQLMVLTDDGAVTNERGAIGELMVRGSSVSYGYLDNYAKTQEAFVQNPAHSLYPDMVYKTGDRVTIGEEGLYYYCGRLDNQIKHLGYRIELGEIEANALLLDTVLEAVAVYRSSTSMFESAICMAVKTTVPTDVRTLRAALTSVLPPYMIPGHFVFLDSDFPRTPNGKYDRASILGLFVEGHHHHHH	not soluble
MAFLGYGAAAALGGALVYANLPTYLTIGAVAPTFAHLAAAKLVPIRGGPKEKEVVERNEQFTADSLFKKGPIMVMAVRRPGCMLCRREAAELHTLLPLLKEKGIELAAVVHETRGANEFKSWFSGGDVYLDTDRTFYGPNERWLPVWMGFLRFGTYSNVYKAKKAKVEGNMEGEGRLLGGVYLIANNDIVFTHLEKEWGDAADIKEVRAAVEKFSEKSK	not soluble
MNKEKEQQLNEALVLFSFAYKTFTEEPDLIIKKYGIQRIHHRILFFVARFPGLSVNELLKLLEISKQALHKPMHILINKGLIFSKESDYDRRIKEIFLTNEGERLEKEISNIQREHLLSIFSQFHNGDEKSWLEIMRQLSLKRLGYAAWNKKK	not soluble
MVKATNVDLSLEDIISKTRKTTGSIQKKSFGGARRGNTRPTGLPRRSGGSGGWKDLDAVQNHGISSRGNDSKVIRVNISNLAPTVISSDLEELFGDYRLSSVSVNFNEHGDSLGTGDISLTKRDAERLVQKFSGVALDGKIMKFAVIDSSNMAGRVDFGNRSRSSPGRSSRGFQSGPRRNNGKPEDFLRDGVHAGDIKRGGAGRGGFRKGGRGGARDAKPKKTEAELDAELEAYMAKRNA	soluble
MNKKHVVILGAGYAGLKTLRELQKGAKDVEITLVDRNNYHYEATDLHEVAAGTQPAEKITYNIMDVVDEKMTTFIQGTVKTIDAATQTVALEDGQTINYDYLVVSLGFESESFGIPGVQEHALQMVDVKTALNVYEHIQEQMRQYKATQNEEFLKIVVCGAGFTGIELLGSLVENKPKFAEIAGVSADQIQIYCVEAVTRLLPMFNEKLANYGVQLLKDSAIHLLLGKPIKEIKPGAVVYQDNEAGDLAELSAKTIIWTTGVSGSHVVGDSGFEARRGRVMVQPDLTDANHSNVYIIGDCSAVMDTETNRPYPTTAQIALKMGAHAAKNIQAQLKGEATKPFSFKSQGSVCSVGNTRALGIVGKTDIKGYPASFMKKIIMNKALFETGGTKEMMAKGRFDLYH	not soluble
PTAGADTIEYCVTHSESKALIGGKLDDPAATQQVIDAMPELISIALPYDSAPQCQYQFNALIADAVPSEERPQHYDDKLMSLVYTSGTSGLPKGAMLTYGAFSWSVQQLINHIGIQANDRLFSYLPLAHITER	not soluble
MGSDKIHHHHHHMIKCIDVNDLKVGMYIHDLNCDWMSHPFLVNRFKVKDESEIRKIADAGIHEVYIDTRKGMDLPSARSEGEVRKQLESELREIASRERTVTRHVEAAEEFGRAQTIHHEANQIIRDILQDVRLGKQVELEQVEPQVEKLTGSILRNGGALLSLCRIKDKDNYTFQHSVSVGALMVSFCNALGMSKEVIHHAGIGGMLHDIGKMKVPDSILNKPGKLTEQEFMVMKCHVVESQKILHATRGISETAVLVAGQHHERHDGSGYPAGLKGEEISQLGQMAAIVDVYDALTSNRCYHKGMPPTDALRKIYEWSKFHFNPELVQAFMRVIGIYPVGTLVRLESGRLGVVVEQNEDNLVSPKVKVFFSTKSNTHIPPEVVDLSRRMGFGGGDRIVKHESPEKWKIDPLRFL	not soluble
MAHHHHHHMSIDAGLCDRYVVFLDIDGVLLPVPKFTFGGGNLSGRCAQTLKRLIAALGGRDKVTLVLSSTWRNHPVMVDRLNTFMQKEAGDGIPVVSERTPNGTVLMSSVTYYADDPSEQRLVRDRVDEVYRWLHTHITDHPEAIGGRWFAIDDMQLDVDERMRGHFLHTQTDVGITEADVDTACAMIASHPSPTEAYAAAVAALADPALKAEEVEIQRVLQSRLEAQLAATTAELTEAQEKMAALSAEKKDLIKELAEKQRSIDDMRYRLAVYDFSKRYPCLATAVELAGTKSGAERRAMDAAIRTFVTLLMDRKELQKKMRSEAKKVKQAS	not soluble
MGSDKIHHHHHHMKTDITVVKASHLQPFISFLDKVGAPLDRLLNQVNLHADYFSDQENLIAEAPFWALLEHASYSQGIEDLGFQVTEQLSLDSFGVFGAKVMQADSLHQALTTFIRDMGQQSNCPPFWLMEQGAFVWFCRLGTQGIKKGHWPIEQHVISLMIQLVRGFTTATWTPPKVHLQTHTLKGADNTASFSNSQILINKAFTGICISKSLLLNGAVIKPKDRVAEEVAHQMTISTVNSHVIKELLMQSCANQPLNAQQIANSLGLNIRHMQRLLKEEGCSYRELSEQVLFKQSQVMLSTEQLSVLEVALALGYSDAANFTRAFKRWSGLSPTQYKLLLN	not soluble
MVDGEGITPKTCSEDIIKDLLNDVKSSEKPFSVDKLAGCDQTDFVGKRPKKHHRHKSKKSKKVRRRSKTWSSSRSRSRSRSRSRGRSQERRRSRKSRKSRSRSRLKHREEKIEKKNLEKAPKNELIPQAPSTENGKPKEFKEPPRKDEADDLPLGADFSTPLVKKETKLAISITTVLPKAENKKEVEDGEIEEIAYGDGDFKEPEGIEKNLENKNICENGNLDNSENEKSKEKDKNRKKEKTERKRKRSHSSSDRRGRRTSKESRRRSRSRDTHRTRRRSPERSRRSTETRNERPERPSRWRSRSRERKEYDSYRRRRSRSREVIDKEKLLAIAKTKRAEMMSNGDRDSASIEDFVTYCKKLQRRQEREKRREAGHDVSDHDSDRETVRYKHPYAMPKEPIRINIVTATSANLAQKAITGPEEPTQLGAAQLRIVFPVSSGAVHKENAEWVPVEKEDVPKSCSVEQKKHVALTSLEIDRCRAQGIPVAPAPVPKFLNSILPPPPAPPQFLPNPTDSFRPPTPPPLPSVLYVPNKDQMILKEPKDIPIPAPSDIGKVLKQRTEAQRKVLSTPNDFDAHRALREANEQISLWAALKSLPGEYTGTTGLRLLTADELQPQNPKYHAWVKKDQFRNAAPATGGIGRLMLEKMGWRPGEGLGKDATGNLEPLMLDVKSDRKGLIAEEEMSIKQRNKINAQNNVPVDLSNKNPISLIMELCAKRRWNPPSFSCEESGADHLKMFVWTIVINDVEYRPMCGSKQKKEGKAVAAQVALQSLGVLPMDPNLPVYM	not soluble
MRGSHHHHHHGSIQKTTIAADSSSKPRGINYDTGIPFNVLIVDDSVFTVKQLTQIFTSEGFNIIDTAADGEEAVIKYKNHYPNIDIVTLDITMPKMDGITCLSNIMEFDKNARVIMISALGKEQLVKDCLIKGAKTFIVKPLDRAKVLQRVMSVFVK	soluble
MVQEQMKLTGTLEGHTGWVTQIATYTRNDKTTVLSSSRDKTILVWDVDSVAPVDEGPIGRPVRSLTGHNHFVSDVVISSDGQFALSGSWDKTLRLWDLNQGVSTRQFISHTKDVLSVAFSADNRQIVSGSRDKSIKLWNTLAQCKYTITDDCHTDWVSTVRFSPSNRDPVIVSAGWDKVVKVWNLGNCRLKTNHIGHTGYVNTVTVSPDGSLCASGGKDGQAMLWDLNEGKHLYTLPGNDVINAMSFSPNRYWLCAAVGSSIKIWDLEDKKEIEELKPEIASSGSSRGSSPQCISLAWSQDGQTLFAGYTDNIIRVYQVSIRASN	not soluble
MRVIKIQTKGDVRISYAIETIRINEWTKAIAEVIFEKDGVPEWEIEAVSRMSSDYVGSLGSEFEILDVSIDRRTNSYKIKGKYEGFYLAGTPIEAIEKDIVESVLSLRFESLDVYEVNIEDPFEDYDPSEYWELMDWEELEHHHHHH	not soluble
MEPTGMMVAAPTASLPEAIGGERNWDYRYTWIRDTAYVIEALATIGYKREAVSFLYDMMDVISRENKIRTIYSIDNSDDFVERELDFEGYRGSRPVRIGNKAVDQLQIDQYGSIVRAIHAMEKAGGVVNSYLWDFVEEMMAKIEYLWKYPDSSIWEFRTEPKQYVYSKVMSWAAFDSAITMARDLGLTAPIKKWKGIQDEIWNDVMTKGFDPQTNSFVQYYGSKNVDASLLRLPILGFIPANDERFIGTMKRIEDELMVDGYLFRRYREDDGLKGDEGSFLMLTFWYIEDLILMKRLKAARAALESIIEKANHLGLYSEEIDEKTGDFLGNFPQALSHLGIIRVAPKLEEAFLKRVSKINELEHHHHHH	not soluble
MLTTLAISNYRTLREIVLPLGRLNVVTGANGSGKSNLYKALRLLAQTAQGGVVNALALEGGLDSCFWAGPENLTKGMLAGDTPIEATVRQAPKRLKLGFAGEDFSYLIELGLPKPDSTTLFGLDPQIKREAIWNGAKYRPASVLVERRGPMVKSRSQDGQGWITLSAHLQSSDSIFTELADPERSPEVLKLRDSIRAWRFYDHFRTDTDAPARRPQLGTATPVLHHDGRDLPSAIQTIFEIGDKSAFDHAVSDAFPGAKVRITPQAGGILQLEFQQQGLLRPLYASELSDGTLRYLLLIAALLTPRPPELMVLNEPETSLHPDLLPALARLIAKASELEHHHHHH	not soluble
MSLKKTTWFAGRFPGYVSPLSSVALSVLAALCPLTSRGESYFNPAFLSADTASVADLSRFEKGNHQPPGIYRVDIWRNDEFVATQDIRFEAGAVGTGDKSGGLMPCFTPEWIKRLGVNTAAFPVSDKGVDTTCIHLPEKIPGAEVAFDFASMRLNISLPQASLLNSARGYIPPEEWDEGIPAALINYSFTGSRGTDSDSYFLSLLSGLNYGPWRLRNNGAWNYSKGDGYHSQRWNNIGTWVQRAIIPLKSELVMGDSNTGNDVFDSFGFRGARLYSSDNMYPDSLQGYAPTVRGIARTAAKLTIRQNGYVIYQSYVSPGAFAITDLNPTSSSGDLEVTVDEKDGSQQRYTVPYSTVPLLQREARVKYDLVAGDFRSGNSQQSSPFFFQGTVIAGLPAGLTAYGGTQLADRYRAVVVGAGRNLGDWGAVSVDVTHARSQLADDSTHQGQSLRFLYAKSLNNYGTNFQLLGYRYSTRGFYTLDDVAYRSMEGYDYEYDSDGRRHKVPVAQSYHNLRYSKKGRFQVNISQNLGDYGSLYLSGSQQNYWNTADTNTWYQLGYASGWQGISYSLSWSWSESVGSSGADRILAFNMSVPFSVLTGRRYARDTILDRTYATFNANRNRDGDNSWQTGVGGTLLEGRNLSYSVTQGRSSSNGYSGSASASWQATYGTLGVGYNYDRDQHDYNWQLSGGVVGHADGITFSQPLGDTNVLIKAPGAKGVRIENQTGVKTDWRGYAVMPYATVYRYNRVALDTNTMDNHTDVENNVSSVVPTEGALVRAAFDTRIGVRAIITARLGGRPLPFGAIVRETASGITSMVGDDGQIYLSGLPLKGELFIQWGEGKNARCIAPYALAEDSLKQAITIASATCIRPASEGGSHHHHHH	soluble
MKVGIVGGGIVGLFTAYYLAKEGIKDIIIYEKGFLGAGSIHAAGLIEPYRFDKINTLSMIKKMLKYKMNGSTDIKEVDKLWLVELIKNLEKDPPGEAWDTMREMAKFSLSEYKRIAEEKNDFDYHEDGLLELYYNSKEFESGIEDEKKSPFNPKFEIEEIKGFAGGLFFPELSRISTEKFIDRISREIVSNIKVKNEEVIKVSDEGYIDGEKYDLVVVAAGIWSRILKIPLTAFKGYGYRVKGVSKLNRAAVIVDYGLAISPLSDHIKITGGFDADFSIDSKRAEDFLKKAEELVDIQYIIDLNMGFRPCSPDGFPVIGKRNNLVLVTGACRLGWSYGPAMGRYATDLALGKAKDLGYISRYYHELEHHHHHH	not soluble

Reference: the DeepSol protein solubility set
